{"source": "patent US10677782B2", "about": "“Methods of determining interferon having direct inhibitory effects on tumors and uses thereof” (SUPERLAB FAR EAST LIMITED, priority 2013, dated 2020)", "key": {"[1]": {"tested_on": "Human Cervical Cancer Hela Xenografts", "assay": "Human cervical cancer Hela xenografts in nude mice (Example 2)", "assay_type": "in vivo", "settings": "for TV (mm^3, mean ± SD) (D0): day 0, start of treatment; for TV (mm^3, mean ± SD) (D28): day 28", "protocol": "(§1) Before commencement of this study, the xenografts were passaged twice in nude mice. Under sterile conditions, well-grown tumors were cut into 1.5 mm^3 fragments and one such fragment was injected by trocar needle into the right flank of each study animal. […] Individual tumor size (length and width) was measured twice per week with microcalipers. Tumor volume (V) was calculated using the formula: V=(length×width^2)/2. Individual relative tumor volume (RTV) was calculated using the formula: RTV=Vt/V0, where Vt is the tumor volume on the day of measurement and V0 is the tumor volume on the day of first treatment. Therapeutic effect of the test article or control article was expressed in terms of TIC (%), using the formula: TIC (%) (mean RTV of the treated group/mean RTV of the control group)×100%; and in terms of % Inhibition, using the formula: % Inhibition=100%−T/C %.\nThen 1.5 mm^3 fragments were prepared for s.c. implantation into the animals."}, "[2]": {"tested_on": "Human Colon Cancer HT-29 Xenografts", "assay": "Human colon cancer HT-29 xenografts in nude mice (Example 3)", "assay_type": "in vivo", "settings": "for TV (mm^3, mean ± SD) (D0): day 0, start of treatment; for TV (mm^3, mean ± SD) (D28): day 28", "protocol": "as §1\nThen, 1.5 mm^3 fragments were prepared for s.c. implantation into the test animals."}, "[3]": {"assay": "Tolerability and body weight of tumor-bearing mice, Example 1", "assay_type": "in vivo, BALB/cA nu/nu mice", "settings": "0.05-0.15 mg/mouse i.t. every other day, 21 days", "description": "The animals used were 4-6 weeks old male BALB/cA nu/nu mice, weighing about 23±2 g, obtained from the Shanghai Institute of Materia Medica (Shanghai, P.R. China). The study protocol was reviewed by the Committee on the Use and Care of Animals of Shanghai Institute of Materia Medica for compliance with regulations, and Committee approval was obtained prior to study initiation. Wherever possible, procedures used in this study were designed to avoid or minimize discomfort, distress, and pain to the animals. Animals that experience severe or chronic pain or distress that could not be relieved were painlessly euthanized, in accordance to regulations. Animals were housed 6 to a cage. They were ear-marked with ear hole punch identification. The room temperature was maintained at 25° C.±1° C. Lighting was set at 12 hr on and 12 hr off. Food was provided ad libitum. City tap water, filtered with a 5 micrometer (μm) filter, was provided to the animals ad libitum via water bottles.\nAnimals were assigned to treatment groups randomly. Initially, all animals were placed in one large animal cage. For assignment to the study, they were later separately housed, with 6 animals per cage per treatment group. […] Tumor growth was monitored by measuring the length and width of each tumor twice a week during the course of the study. […]"}, "[4]": {"assay": "Tolerability and body weight of tumor-bearing mice, Example 2", "assay_type": "in vivo, BALB/cA nu/nu mice", "protocol": "(§2) Animals were assigned to treatment groups randomly. Initially, all animals were placed in one large animal cage. For assignment to the study, they were later separately housed, with 6 animals per cage per treatment group. Groups 1 and 2 are Control groups in which the animals were each administered the vehicle every other day after the first treatment. […] The animals in Groups 4, 5 and 6 were each given rSIFN-co every other day after the first treatment at 0.15 mg/mouse (Group 4) or 0.10 mg/mouse (Group 5) or 0.05 mg/mouse (Group 6), respectively. Tumor growth was monitored by measuring the length and width of each tumor twice a week during the course of the study. Each animal was also weighed twice a week during the course of the study.\nThe study was conducted as in Example 1 except as specifically indicated otherwise. Human cervical cancer xenografts were first established and prepared in a similar manner as in Example 1, by inoculating 5×10^6 Hela cells subcutaneously in nude mice and passaging the well-grown xenografts twice in nude mice. Then 1.5 mm^3 fragments were prepared for s.c. implantation into the animals. The body weight of the animals averaged 19±2 g at dose initiation In contrast to Example 1, the animals used were all female."}, "[5]": {"assay": "Tolerability and body weight of tumor-bearing mice, Example 4", "assay_type": "in vivo, BALB/cA nu/nu mice", "settings": "0.05 mg/mouse i.t. every other day; day 17; reasons unknown", "protocol": "as §2\nThe study was conducted as in Example 3, except as specifically indicated otherwise. Human xenografts for injection into the test animals were first established and prepared in a similar manner as in Example 1, but by inoculating 2.5×10^6 SPC-A4 cells subcutaneously (s.c.) in nude mice and passaging the well-grown tumors twice in nude mice. The 1.5 mm^3 fragments were then used for s.c. implantation into the test animals. The body weight of the animals averaged 22±2 g at dose initiation. In contrast to Example 3, the animals used in this study were all male and the study was conducted over a 21 day treatment period."}, "SW620 tumor cells": {"tested_on": "SW620 tumor cells", "assay": "Cell viability over 1-6 days, MTT assay", "assay_type": "cell-based, human", "settings": "10 μg/ml", "quoted_text": "The cell survival rate was evaluated in a standard MTT assay (3-(4,5-dimethylthiazol-2-yl)-2,5-diphenyltetrazolium bromide assay, Sigma, St. Louis, Mo.). For the assay, about 20 μl MTT (at 4 mcg/ml) was added to each well. The cells were incubated at 37° C. for 4 hr. After that, the supernatant of each well was drawn off carefully and then an equal volume (150 microliter) of dimethyl sulfoxide (DMSO) was added to each well and mixed thoroughly on a shaker for 15 min. The absorbance from the plates was read at 595 nm with a Thermo Scientific Microplate Reader (Thermo Fisher Scientific Inc., Lowell, Mass.). The relative cell viability was calculated as follows: Cell viability=(Treated group(OD595) minus blank(OD595))/(Control group(OD595) minus blank(OD595))×100%."}, "[6]": {"tested_on": "beta-catenin protein level in A549 cells", "assay": "Beta-catenin protein level by Western Blot", "assay_type": "cell-based, human", "settings": "10 mcg/ml", "protocol": "(§3) Cancer cells, A549 and Sw480, were cultured to about 85% confluency and put into 6 well plates. The cells were treated with either 10 mcg/ml IFNα-2b or rSIFN-co or left untreated as control (Mock) for 24 hr, 48 hr, or 72 hr, respectively. After treatment, the cells were harvested for Western Blot to detect the beta-catenin protein level, using its specific antibody, with GAPDH as endogenous loading control. The experiment was conducted in triplicate.\n(§4) To determine the expression of various proteins, cells were harvested from the plates and total cellular protein were extracted using extraction reagents (Cat #: P0013) according to the manufacturer's protocol (Beyotime, China). The total protein concentration was determined by the Lowry Protein Assay kit (Bio-Rad, USA). […] The membranes were blocked with 5% skimmed milk, bovine serum albumin, 10 mmol/L Tris-HCl at pH 8.0, 150 mmol/L NaCl, and 0.05% Tween 20 overnight at 4° C. The blocked membranes were then incubated with primary antibodies (1:1000 dilutions), followed by secondary HRP-conjugated antibodies. Blots were visualized using Luminescence/Fluorescence Imaging LAS4000 System (GE Healthcare Life Sciences, USA) with super signal west pico chemiluminescent substrate kit (Thermo scientific, USA).\n(§5) For this determination, the primary antibodies used were mouse monoclonal anti-beta-catenin antibodies (1:1000; Santa Cruz Technology, Santa Cruz, Calif.) and mouse monoclonal anti-GAPDH antibodies (1:2000) (Kangwei Biotechnology, China). Anti-mouse HRP-conjugated secondary antibodies (Santa Cruz Technology, Santa Cruz, Calif.) were used at concentrations of 1:2000."}, "[7]": {"tested_on": "beta-catenin protein level in SW480 cells", "assay": "Beta-catenin protein level by Western Blot", "assay_type": "cell-based, human", "settings": "10 mcg/ml, 72 hours", "protocol": "as §3, §4, §5"}, "[8]": {"tested_on": "procaspase-3, cleaved caspase-3, procaspase-8, cleaved caspase-8, PARP in A549 cells", "assay": "Apoptosis-related molecular markers by Western Blot", "assay_type": "cell-based, human", "settings": "24 hr or 48 hr; interferons at 10 mcg/ml", "from_the_text": "(§6) Thereafter, apoptosis-related molecular markers were monitored by Western Blot. The primary antibodies used were mouse monoclonal anti-beta-tubulin (1:2000, Cat #: CW0098A) and mouse monoclonal anti-GAPDH (1:2000, Cat #: CW0100A) (Kangwei Biotechnology, China); mouse monoclonal anti-PARP (1:1000, Cat #: se-2007, Santa Cruz Biotechnology, Inc.); rabbit monoclonal anti-procaspase 3 (1:1000, Cat #: 9665), and rabbit polyclonal anti-cleaved caspase 3 (1:1000, Cat #: 9661) (Cell Signaling Technology, USA); goat polyclonal anti-procaspase 8 (1:1000, Cat #: sc-6136, Santa Cruz Biotechnology, Inc); rabbit monoclonal anti-cleaved caspase 8 (1:1000, Cat #: 9496) (Cell Signaling Technology, USA)."}, "[9]": {"tested_on": "procaspase-3, cleaved caspase-3, procaspase-8, cleaved caspase-8, PARP in SW620 cells", "assay": "Apoptosis-related molecular markers by Western Blot", "assay_type": "cell-based, human", "settings": "24 hr or 48 hr; interferons at 10 mcg/ml", "from_the_text": "as §6"}, "[10]": {"settings": "0.05 mg/mouse i.t. every other day"}, "[11]": {"settings": "0.10 mg/mouse i.t. every other day"}, "[12]": {"settings": "0.15 mg/mouse i.t. every other day"}}, "data": [{"molecule": "rSIFN-co: Recombinant super-compound interferon; amino acid sequence SEQ ID NO: 1 (same as interferon alfacon-1), encoded by SEQ ID NO: 2, novel tertiary structure (protein, Amino acid sequence of recombinant interferon) MCDLPQTHSLGNRRALILLAQMRRISPFSCLKDRHDFGFPQEEFDGNQFQKAQAISVLHEMIQQTFNLFSTKDSSAAWDESLLEKFYTELYQQLNDLEACVIQEVGVEETPLMNVDSILAVKKYFQRITLYLTEKKYSPCAWEVVRAEIMRSFSLSTNLQERLRRKE", "values": [{"measurement": "TV (mm^3, mean ± SD) (D0)", "setting": "[1]; [10]", "result": "135 ± 26", "unit": "mm^3"}, {"measurement": "TV (mm^3, mean ± SD) (D28)", "setting": "[1]; [10]", "result": "886 ± 232", "unit": "mm^3"}, {"measurement": "TV (mm^3, mean ± SD) (D0)", "setting": "[1]; [11]", "result": "135 ± 28", "unit": "mm^3"}, {"measurement": "TV (mm^3, mean ± SD) (D28)", "setting": "[1]; [11]", "result": "865 ± 186", "unit": "mm^3"}, {"measurement": "TV (mm^3, mean ± SD) (D0)", "setting": "[1]; [12]", "result": "136 ± 25", "unit": "mm^3"}, {"measurement": "TV (mm^3, mean ± SD) (D28)", "setting": "[1]; [12]", "result": "1025 ± 400", "unit": "mm^3"}, {"measurement": "TV (mm^3, mean ± SD) (D0)", "setting": "[2]; [10]", "result": "130 ± 26", "unit": "mm^3"}, {"measurement": "TV (mm^3, mean ± SD) (D28)", "setting": "[2]; [10]", "result": "416 ± 166", "unit": "mm^3"}, {"measurement": "TV (mm^3, mean ± SD) (D0)", "setting": "[2]; [11]", "result": "128 ± 39", "unit": "mm^3"}, {"measurement": "TV (mm^3, mean ± SD) (D28)", "setting": "[2]; [11]", "result": "541 ± 196", "unit": "mm^3"}, {"measurement": "TV (mm^3, mean ± SD) (D0)", "setting": "[2]; [12]", "result": "131 ± 36", "unit": "mm^3"}, {"measurement": "TV (mm^3, mean ± SD) (D28)", "setting": "[2]; [12]", "result": "570 ± 144", "unit": "mm^3"}, {"measurement": "tolerability: signs of toxicity or weight loss", "setting": "[3]", "result": "no signs of toxicity or weight loss"}, {"measurement": "tolerability: signs of toxicity", "setting": "[4]; 0.05-0.15 mg/mouse i.t. every other day, 28 days", "result": "no signs of toxicity"}, {"measurement": "change in average body weight", "setting": "[4]; 28-day treatment period", "result": "Very little change"}, {"measurement": "deaths", "setting": "[5]", "result": "one mouse"}, {"measurement": "cell viability, time dependent effect", "setting": "SW620 tumor cells", "result": "strongly decreased cell viability of SW620 cells in a time-dependent manner"}, {"measurement": "beta-catenin protein level", "setting": "[6]; 48 hr", "result": "dramatically decreased"}, {"measurement": "beta-catenin protein level", "setting": "[6]; 72 hr", "result": "Further decrease"}, {"measurement": "beta-catenin protein level", "setting": "[7]", "result": "Decrease in beta-catenin protein level in the SW480 cells was obvious"}, {"measurement": "level of apoptosis-related molecular markers (procaspase-3, procaspase-8, PARP, cleaved caspase-3, cleaved caspase-8)", "setting": "[8]", "result": "neither of the interferons, IFN alpha-2b nor rSIFN-co, caused any reduction in the level of procaspase-3 or procaspase-8 or PARP, or induced any enhancement in the level of cleaved caspase-3 or cleaved caspase-8"}, {"measurement": "level of apoptosis-related molecular markers (procaspase-3, procaspase-8, PARP, cleaved caspase-3, cleaved caspase-8)", "setting": "[9]", "result": "neither of the interferons, IFN alpha-2b nor rSIFN-co, caused any reduction in the level of procaspase-3 or procaspase-8 or PARP, or induced any enhancement in the level of cleaved caspase-3 or cleaved caspase-8"}]}]}
